Data: US20250188136A1, “AV3 MUTANT POLYPEPTIDES FOR PEST CONTROL” (Vestaron Corporation, priority 2021, published 2025)
Ends that are not written are not given here.

What was measured:
[1] = DASbox small-scale fermentation, degradation by HPLC and LC/MS; format: physicochemical; details: DASbox fed batch fermentation runs
Experimental: DASbox® is a parallel bioreactor system (Eppendorf, 175 Freshwater Blvd, Enfield, CT 06082, USA). The DASbox system used here contains 8 fermentation vessels with 250 mL volume capacity, allowing 8 small scale fermentation runs simultaneously. The DASbox fermentation runs were performed according to the manufacturer's instructions, and using the fermentation conditions described herein.
The screening of the Av3b mutants was conducted using a fed batch process in aerobic bioreactor. Reactors were initially filled to ˜45% capacity with a rich culture media containing 5-20 g/L of a carbon source such as glucose, sorbitol, or lactose, 5-20 g/L phosphoric acid, 0.1-1.5 g/L Calcium sulfate, 5-15 g/L Potassium sulfate, 0.5-10 g/L Magnesium sulfate heptahydrate, 1-5 g/L potassium hydroxide, and 10-60 g/L of corn steep liquor. The temperature of the reactor was maintained between 25-35° C. for the duration of the fermentation. The pH was held constant between 4-5.5 with the addition of 15% ammonium hydroxide. Dissolved oxygen was held constant by sparging air between 0.5-1.5 volume/volume/min and by increasing agitation to maintain a set point of 10-30%.
Inoculation of the reactor was from an overnight seed culture containing 5-40 g/L of a carbon source such as glucose, sorbitol, or lactose, and 5-40 g/L of corn steep liquor. Inoculation percentage ranged from 5-20% of initial fill volume. Once inoculated, the reactor was fed with a 70% solution of the selected carbon source until the reactor was filled and/or desired supernatant peptide concentration was achieved, approximately 96-140 hours and 0.8-1.2 g/L, respectively.

[2] = tested on: Helicoverpa zea; test: Lepidoptera injection assay, corn earworm (CEW); format: in vivo
Experimental: An injection assay was performed on Helicoverpa zea (corn earworm or “CEW”) and Spodoptera frugiperda (fall armyworm or “FAW”). Injections comprised a given Av3b mutant peptide combined with water to arrive at the planned dose. The Av3b mutants included Av3bM24; Av3bM165; Av3bM103; and Av3bM170. Av3b was used as a control.
Insects were reared on an artificial diet prepared from General Purpose Lepidoptera diet (Frontier Scientific, Newark, DE 19713, product No. F9772) according to the manufacturer's instructions. To perform the insect injection bioassay, 5 mL of hot diet was dispensed into the well of a rearing tray (Bio-Service Inc., Bio-RT-32), with 8 wells per injection treatment. The hot diet was then allowed to cool and solidify. Next, third instar larva were incubated on ice in order to immobilize them. Injections were prepared on a hand-microapplicator with injection solution (>100 μL) in 1-cc all-glass syringe having a 30 gauge straight needle. Air bubbles were removed from the syringe, and the syringe was set it up on the microapplicator. Injection volume was adjusted in the microapplicator at 2 μL.
To inject the larva, the insects were picked up and positioned close to the injection needle. The needle was allowed to penetrate the cuticle of the third pro-leg of the larva. The injection knob of the microapplicator was then rotated to inject a 2 μL solution into hemolymph from the third pro-leg. After injection the larva maintained on the needle for a few seconds to make sure the injected solution was absorbed. Then, the larva were gently removed from the needle and placed into the wells of prepared tray, along with 5 mL of solidified diet per well. Finally, the tray was sealed with vent covers.
Injected larva were incubated at 28° C. in an insect incubator, and scored at 24-hours post-injection based on their condition. Insect conditions were categorized as follows: alive (walking, eating, normal behavior); affected (showing toxic symptoms, such as tremors, writhing, unbalanced gait, or a combination thereof), knockdown (paralyzed albeit able to move with gentle poke); and dead (unmoving, discoloration, or a combination thereof).

[3] = Thermo-stability at 54° C. in pH 4.0 solution; format: physicochemical
Experimental: A thermo-stability study was performed for Av3b, Av3bM24, Av3bM165, Av3bM103, and Av3bM170 in a pH 4.0 solution at 54° C. for 0, 3, 7, 10, 12, and 14 days, with a caffeine internal control to cancel variation from evaporation. Samples of 1 mL were prepared in 1.5 mL microtube with sodium acetate buffer (NaOAc) at pH 4.0, containing 0.1 μg/μL of peptide, and 0.025 μg/μL of caffeine. The samples were incubated at 54° C. in a dry mixer. At 0, 3, 7, 10, 12, and 14 days, 20 μL of each sample was analyzed via analytic rpHPLC system to evaluate peptide loss. Each sample contained a fixed amount caffeine, which was used to compensate the peptide HPLC UV absorbance peak change due to volume change by evaporation. FIG. 68.

[4] = Circular dichroism assay, melting temperature; format: physicochemical; details: 10 mM Na3PO4 solution, pH 5.9; 20° C. to 98° C.
Experimental: A JASCO J-1500 CD spectrometer (JASCO, 28600 Mary's Court, Easton, MD 21601 USA) was used to measure the CD spectrum and the secondary structure information of the Av3bM24, Av3bM165, Av3bM103, and Av3bM170 peptides (with Av3b as a comparator). The peptides were prepared in 10 mM Na3PO4 solution, pH 5.9, and loaded into the cuvette for CD spectrum measurement. Measurements were processed with a light wavelength scan ranging from 180 nm to 250 nm, with a 1 nm interval; the temperature graduate changed from 20° C. to 98° C., with 2° C. interval.

KSCCPCYWGGCPWGQNCYPEGCDGPK (ends and bridges not checked; cysteine pairing not given here) [Av3bM24]
degradation detected via HPLC and LC/MS [1]: degradation was detected | knock-down effects compared to Av3b ([2]; CEW and FAW injection, KD50): comparable knock-down effects to Av3b | KD50 CEW ([2]; third instar larva, 2 μL injection, scored at 24-hours post-injection): 428 ± 131 (N = 4) pmol/g | peptide change on day 14 ([3]; pH 4.0, 54° C., HPLC peak area, + mass increase, − mass loss): −29.5% | thermo-stability at 54° C. ([3]; pH 4.0 solution, up to 14 days): not thermo-stable | CD Melting temperature [4]: 80 °C
